# Measured values: paper PMC7343985
# Legend:
# [1] = biological target: SpsD_(520-846) (C domain, connecting region of SpsD) (Staphylococcus pseudintermedius ED99); assay: SPR; Biacore X100; SpsD520-846 or SpsL538-823 covalently immobilised on CM5 chips; 2-fold dilution series of Fn in PBS with 0.005% Tween 20, 30 ul/min, 22°C; steady-state response fitted to the Langmuir equation (one-site model)
# [2] = biological target: SpsL_(538-823) (R domain, repetitive region of SpsL) (Staphylococcus pseudintermedius ED99); assay: as above
# [3] = biological target: Human fibronectin purified from plasma (human); assay: single-cell force spectroscopy (AFM); single bacterium on a polydopamine colloidal probe against Fn-coated gold substrates in PBS, room temperature, applied force 250 pN, approach and retraction 1,000 nm/s, contact time 100 ms
# [4] = biological target: Human fibronectin purified from plasma (human); assay: single-molecule force spectroscopy (AFM); AFM tips functionalized with Fn (EDC/NHS) against bacteria immobilised on polystyrene, PBS, room temperature, applied force 250 pN, approach and retraction 1,000 nm/s, contact time 100 ms
# [5] = biological target: Human fibronectin purified from plasma (human); assay: single-molecule force spectroscopy (AFM), dynamic force spectroscopy; Fn tips against immobilised bacteria, PBS, room temperature; retraction speeds 0.5, 1, 3, 5 and 10 um/s to vary the loading rate
substance,measurement,setting,value
Human fibronectin purified from plasma (natural protein),Kd,[1],1.2 nM
same,Kd,[2],50 nM
SpsL on the surface of S. pseudintermedius ED99 spsD mutant cells (natural protein),adhesion force (3 cells),[3],168 pN
same,frequency of adhesive force curves,[3],66%
same,adhesion force (3 cells),[4],158 pN
SpsD on the surface of S. pseudintermedius ED99 spsL mutant cells (natural protein),bond strength at low tensile force,[5],0.25 nN
same,bond strength under mechanical tension,[5],2 nN
same,adhesion force (cell 1),[3],1440 pN
same,adhesion force (cell 2),[3],1750 pN
same,adhesion force (cell 3),[3],1540 pN
same,unbinding force (cell 1),[4],1500 pN
same,unbinding force (cell 2),[4],1700 pN
same,unbinding force (cell 3),[4],1820 pN
